{"source": "paper PMC4004541", "about": "“PEG-Like Nanoprobes: Multimodal, Pharmacokinetically and Optically Tunable Nanomaterials” (PLoS ONE, 2014)", "key": {"[1]": {"assay": "Quantum yield of fluorochrome-bearing peptides and PN's", "format": "physicochemical", "settings": "means±1 S.D.", "excerpt": "(The p values showing significances are in Figure S2 in File S1). […] PEG attachment increased quantum yields in all cases, but as discussed below the magnitude of PEG generated improvement varied with the fluorochrome chosen. A mechanism for the PEG improvement of quantum yield is fluorochrome shielding, or the blocking of fluorochrome-fluorochrome interactions that result in quenching.\nHowever, the magnitude of these benefits varied with the fluorochrome selected. […] Previous studies indicated PEGylated, fluorochrome-bearing peptides have absorption spectra in PBS similar to their unstacked absorption spectra in methanol. […] It appears that longer wavelength fluorochromes have stronger fluorochrome/fluorochrome stacking interactions, which result in more quenching, which is blocked by PEG and which gives rise to larger increases in quantum yield."}, "HT-29 cells": {"tested_on": "HT-29 cells", "assay": "Non-specific binding (NSB) to HT-29 cells by FACS", "format": "cell-based, human", "settings": "100 μL of nanoprobes (2 μM) added to 100 μl 2% FBS/DPBS, 30 min at 37 °C, means±1 S.D.", "excerpt": "We next examined the non-specific binding (NSB) of PN’s to HT-29 cells based on the assumption that NSB minimization will correlate with a desirable minimization of post-IV injection retention. As noted above, after diagnostic drugs generate their added information, retention can only increase the risks of delayed toxicity. The attachment of PEG decreased the non-specific binding (NSB) to HT-29 cells, scored as the percent of cells above the cutoff for unstained cells seen with FACS ( Table 1 , column 7).\nPN and peptide binding to cells (effect of PEGylation on NSB): HT-29, a human colon carcinoma cell line, was from the American Tissue Culture Collection and maintained according to their instructions. Cells were seeded on 24-well plates at 5X10^5 cells/well in culture medium (RPMI 1640 with 10% FBS) the day before the assay. The day of assay, medium was removed, wells rinsed twice with DPBS (+Ca, +Mg), and 100 μl of 2% FBS / DPBS (+Ca, +Mg) added. 100 μL of Nanoprobes (2 μM) in DPBS (+Ca, +Mg) was added to cells and incubated for 30min at 37 °C. (Probe concentrations were determined spectrophotometrically (783 nm, extinction coefficient of 314 471 cm^-1 M^-1 for IR-783; 497 nm, extinction coefficient of 68 000 cm^-1 M^-1 for Fluorescein; 545 nm, extinction coefficient of 150 000 cm^-1 M^-1 for Cy3). Cells were detached by Trypsin/EDTA and assayed for fluorescence by FACS (BD 7 laser LSR2 for nanoprobes with IR-783; BD 3 laser LSR2 for nanoprobes with Fluorescein or Cy3).\nFigure S4: Effect of PEGylation on non-specific binding to cells by single channel FACS. […] Arrows indicates the cutoff for unstained cells."}, "[2]": {"assay": "Probe size (volume) by FPLC calibrated with globular protein standards", "format": "physicochemical", "settings": "for Volume FPLC, globular protein equivalent molecular volume: Superdex 200 10/300GL, 0.05 M sodium phosphate, 0.1 M NaCl (0.1% Tween, pH 7.2), 0.8 ml/min, calibrated with globular protein standards; for Volume FPLC Dia. (diameter): globular protein equivalent volume from FPLC converted to spherical diameter by formula (ref 15)", "excerpt": "FPLC chromatograms are shown for PN’s bearing the IR-783 fluorochrome with PEG’s ranging from 2 to 40 kDa ( Figure 2A ). FPLC was calibrated with globular protein standards, and globular protein equivalent molecular volumes (in kDa) were obtained ( Table 1 , column 5). Next, these globular protein equivalent molecular volumes were converted to PN diameters in nm using the relationship: [drawing 1] where M is the molecular weight of a globular protein expressed in daltons. PN diameters ranged from 3.0 to 11.7 nm, which means PN’s can be smaller or larger than albumin (MW = 67 kDa; diameter = 5.4 nm, by the formula above). Thus Table 1 column 5 gives the PN volumes obtained from FPLC expressed in two ways: (i) as the molecular weight in kDa of globular proteins with equivalent volumes, permitting size comparison of PN’s to proteins, and, (ii) as spherical diameters (“Dia.”) in nm, permitting size comparisons of a PN to relative to other nanomaterials. We confirmed the sizes obtained with FPLC by measuring the size of PN(783)11.7 by dynamic light scattering (11.7 nm).\nThe mass spec of low molecular weight (MW) materials were obtained by MS-ESI Micromass (Waters) and high MW molecules were determined through MALDI-TOF analyses at the Tufts University Core Facility. RP-HPLC (Varian ProStar detector and delivery modules) employed an eluant A (0.1% TFA/water) and eluant B (0.1% TFA and 9.9% water in acetonitrile). Probe size (volume) was determined by FPLC using an ÄKTA Purifier 10 and SuperdexTM 200 10/300GL column (GE Healthcare) with a running buffer of 0.05 M sodium phosphate, 0.1 M NaCl (0.1% Tween, pH 7.2) and flow rate of 0.8 ml/min. Standards (GE Healthcare) were Ferritin, Ribonuclease A, Carbonic Anhydrase, and Conalbumin and Blue Dextran 2000. To obtain probe volumes, Mr (apparent molecular weight based on size exclusion retention) was plotted versus Kav. [drawing 7] , Vt = total volume, Ve = elution volume, Vo = void volume.\nPN and peptide characterization: The mass spec of low molecular weights (MW) were obtained by MS-ESI Micromass (Waters) and high MW molecules were determined through MALDI-TOF analyses at the Tufts University Core Facility. RP-HPLC (Varian ProStar detector and delivery modules) employed an eluant A (0.1% TFA /water) and eluant B (0.1% TFA and 9.9% water in acetonitrile). […] Standards (GE Healthcare) were Ferritin, Ribonuclease A, Carbonic Anhydrase, and Conalbumin and Blue Dextran 2000. To obtain probe volumes, Mr (apparent molecular weight based on size exclusion retention) was plotted versus Kav. [picture] , Vt = total volume, Ve = elution volume, Vo = void volume."}}}
{"substance": "(DOTA)Lys(PEG 5 kDa)-Cys(IR-783) [PN(783)4.3, PEG-like Nanoprobe: 5 kDa PEG, IR-783 fluorochrome, DOTA peptide]", "values": [{"measurement": "Quant. Yield", "setting": "[1]", "result": "0.16±0.03"}, {"measurement": "Cell NSB: percent of HT-29 cells above the cutoff for unstained cells", "setting": "HT-29 cells", "result": "20±1", "unit": "%"}, {"measurement": "Volume FPLC, globular protein equivalent molecular volume", "setting": "[2]", "result": 35.2, "unit": "kDa"}, {"measurement": "Volume FPLC Dia. (diameter)", "setting": "[2]", "result": 4.3, "unit": "nm"}]}
{"substance": "(DOTA)Lys(PEG 30 kDa)-Cys(Fl) [PN(497)10.0, PEG-like Nanoprobe: 30 kDa PEG, fluorescein, DOTA peptide]", "values": [{"measurement": "Quant. Yield", "setting": "[1]", "result": "0.60±0.08"}, {"measurement": "Cell NSB: percent of HT-29 cells above the cutoff for unstained cells", "setting": "HT-29 cells", "result": "0.1% ±0.1%"}, {"measurement": "Volume FPLC, globular protein equivalent molecular volume", "setting": "[2]", "result": 435, "unit": "kDa"}]}
{"substance": "(DOTA)Lys(PEG 30 kDa)-Cys(IR-783) [PN(783)10.0, PEG-like Nanoprobe: 30 kDa PEG, IR-783 fluorochrome, DOTA peptide]", "values": [{"measurement": "Quant. Yield", "setting": "[1]", "result": "0.16±0.04"}, {"measurement": "Cell NSB: percent of HT-29 cells above the cutoff for unstained cells", "setting": "HT-29 cells", "result": "18±1", "unit": "%"}, {"measurement": "Volume FPLC, globular protein equivalent molecular volume", "setting": "[2]", "result": 435.4, "unit": "kDa"}, {"measurement": "Volume FPLC Dia. (diameter)", "setting": "[2]", "result": 10.0, "unit": "nm"}]}
